# Data published in PMC7371201.
# Legend:
# [1] = target: NbDBCP-T (amino acids 1–414 of NbDBCP) (Nicotiana benthamiana); experiment: SEC; NbDBCP-T alone; approximate molecular weight by gel filtration chromatography
# [2] = target: NbGlk1(83–402) (N. benthamiana (from the prefix Nb)); experiment: SEC; purified recombinant proteins run alone and after co-incubation; peak fractions visualised by SDS-PAGE
# [3] = tested on: NbGlk1(83-402) (Nicotiana benthamiana); experiment: fluorescence anisotropy; settings: DNA annealed in 150 mM NaCl, 15 mM Na citrate, binding buffer, pH and temperature not given in the material
stoichiometry N [1],left:right ratio of NbDBCP within the 12-mL elution volume (densitometry; 1.37 for NbDBCP-T alone) [2],Substance,Kd ([3]; NbGlk1 alone) [nM],Kd ([3]; with NbDBCP-T (1-414)) [nM]
2,1.6,NbDBCP-T (amino acids 1–414 of NbDBCP) (domain or fragment),–,–
–,–,CGGATATCCACGGATATCCACGGATATCCACGGATATCCACGGATATCCC (double strand) [FA-5/FA-6 concatenated GGATATCC GLK site duplex],110,160
